Test results from patent publication US20260193326A1 (published 2026).

Experiments:
[1] = biological target: T1, AAV9 (adeno-associated virus 9); test: SPR, AAV amine-coupled to CM5 chip;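 also: nanobodies flowed as analyte at seven concentrations spanning 1–100 nM over immobilized AAV (500–800 RU), kinetic constants derived by fitting the binding curves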
T1 construct: also called adeno-associated virus serotype 9
Method: (§1) AAV was amine-coupled to a CM5 sensor chip at a density of 500-800 response units (RU). Nanobodies were injected at seven concentrations (1-100 nM) with a flow rate of 45 μL/min, and chip regeneration was performed using glycine-HCl (pH 1.5). Binding curves at different nanobody concentrations were used to calculate kinetic parameters (Kₐ, Kd, KD) (Table 2 and FIG. 2).

[2] = biological target: T2, AAV8 (adeno-associated virus 8); test: SPR, AAV amine-coupled to CM5 chip;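 also: nanobodies flowed as analyte at seven concentrations spanning 1–100 nM over immobilized AAV (500–800 RU), kinetic constants derived by fitting the binding curves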
T2 construct: also called adeno-associated virus serotype 8
Method: as §1

[3] = biological target: T3, AAV5 (adeno-associated virus 5); test: SPR, AAV amine-coupled to CM5 chip;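 also: nanobodies flowed as analyte at seven concentrations spanning 1–100 nM over immobilized AAV (500–800 RU), kinetic constants derived by fitting the binding curves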
T3 construct: also called adeno-associated virus serotype 5
Method: as §1

[4] = biological target: T4, AAV8; test: SPR, AAV on CM5 chip;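 also: surface plasmon resonance with AAV amine-coupled to the chip as ligand, nanobodies injected as analyte over a concentration series, rate constants and affinity fitted from binding curves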
T4 construct: also called adeno-associated virus serotype 8
Method: as §1

[5] = biological target: T5, AAV5; test: SPR, AAV on CM5 chip;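 also: surface plasmon resonance with AAV amine-coupled to the chip as ligand, nanobodies injected as analyte over a concentration series, rate constants and affinity fitted from binding curves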
T5 construct: also called adeno-associated virus serotype 5
Method: as §1

[6] = biological target: T6, AAV9; test: SPR, AAV on CM5 chip;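 also: surface plasmon resonance with AAV amine-coupled to the chip as ligand, nanobodies injected as analyte over a concentration series, rate constants and affinity fitted from binding curves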
T6 construct: also called adeno-associated virus serotype 9
Method: as §1

Row | Binder | Kd [1] | koff [1] | kon [1] | Kd [2] | koff [2] | kon [2] | Kd [3] | koff [3] | kon [3] | Kd [4] | koff [4] | kon [4] | Kd [5] | koff [5] | kon [5] | Kd [6] | koff [6] | kon [6]
1 | A4-055 (VHH) VHH: VQLQESGGGLVQPGGSLRLSCAASGSIFSINTMGWYRQAPGKQRELVAAVTRGGSTNYADSVKGRFTISRDNAKNTVYLQMNSLRPEDTAVYYCHVDEVRQSSWTTSNLWGQGTQVTVSS | 4.06 nM | 0.00032 s⁻¹ | 78800 M⁻¹ s⁻¹ | 2.23 nM | 0.00044 s⁻¹ | 198000 M⁻¹ s⁻¹ | 1.11 nM | 0.00022 s⁻¹ | 198000 M⁻¹ s⁻¹ |  |  |  |  |  |  |  |  | 
2 | A4-053 (VHH) VHH: VQLQESGGGLVQPGGSLRLSCAASGSIFIINTMGWYRRAPGKQRELVAAVTRGGSTNYADSVKGRFTISRDNAKNTVYLQMNSLRPEDTAVYYCHVDEVRQSSWTTSNLWGQGTQVTVSS | 2.6 nM | 0.00048 s⁻¹ | 185000 M⁻¹ s⁻¹ | 15.7 nM | 0.00146 s⁻¹ | 93200 M⁻¹ s⁻¹ | 7.52 nM | 0.00121 s⁻¹ | 161000 M⁻¹ s⁻¹ |  |  |  |  |  |  |  |  | 
3 | A4-043 (VHH) VHH: VQLQESGGGLVQPGGSLRLSCAASGRAFSINTMGWYRQAPGKQRELVATVTRDGSTNYAGSVKGRFTISRDNAKNTVYLQMNSLRPEDTAVYYCHVDEVRQSSWTTSNLWGQGTQVTVSS |  |  |  |  |  |  |  |  |  | 5.45 nM | 0.00104 s⁻¹ | 191000 M⁻¹ s⁻¹ | 7.73 nM | 0.00028 s⁻¹ | 36200 M⁻¹ s⁻¹ | 0.278 nM | 4e-05 s⁻¹ | 144000 M⁻¹ s⁻¹
4 | A4-037 (VHH) VHH: VQLQESGGGLVQPGGSLRLSCAASGSIFSINTMGWYRQAPGKQRELVATVTRGGSTNYAGSVKGRFTISRDNAKNTVYLQMNSLRPEDTAVYYCHLDEVRQSSWTTSNIWGQGTQVTVSS |  |  |  |  |  |  |  |  |  | 11.6 nM | 0.0015 s⁻¹ | 129000 M⁻¹ s⁻¹ | 0.88 nM | 0.00012 s⁻¹ | 136000 M⁻¹ s⁻¹ | 4.07 nM | 0.0004 s⁻¹ | 98300 M⁻¹ s⁻¹
5 | A4-035 (VHH) VHH: VQLQESGGGLVQAGGSLRLSCAASGRGFSINTMGWYRQAPGKQRELVAAVTRGGTTNYADSVKGRFTISRDNAKNTVYLQMNSLRPEDTAVYYCHVDEVRQSSWTTSNLWGQGTQVTVSS |  |  |  |  |  |  |  |  |  | 1.31 nM | 0.00017 s⁻¹ | 130000 M⁻¹ s⁻¹ | 2.52 nM | 0.0005 s⁻¹ | 199000 M⁻¹ s⁻¹ | 1.73 nM | 0.0001 s⁻¹ | 57800 M⁻¹ s⁻¹
6 | A4-049 (VHH) VHH: VQLQESGGGLVQPGGSLRLSCAASGSMFSINTMGWYRQAPGKQRELVAAVTRGGNTNYAGSVKGRFTISRDNAKNTVYLQMNSLRPEDTAVYYCHVDEVRQSSWTTSNLWGQGTQVTVSS |  |  |  |  |  |  |  |  |  | 20.8 nM | 0.00056 s⁻¹ | 26900 M⁻¹ s⁻¹ | 9.61 nM | 0.00158 s⁻¹ | 164000 M⁻¹ s⁻¹ | 93.1 nM | 0.00194 s⁻¹ | 20800 M⁻¹ s⁻¹
7 | A4-040 (VHH) VHH: VQLQESGGGLVQPGGSLRLSCAASGRIFSINTMGWYRQAPGKQRELVATVTRGGSTNYADSVKGRFTISRDNAKNTVYLQMNSLRPEDTAVYYCHVDEIRQSSWTTSNLWGQGTQVTVSS |  |  |  |  |  |  |  |  |  | 1.71 nM | 0.00028 s⁻¹ | 164000 M⁻¹ s⁻¹ | 3.04 nM | 0.00022 s⁻¹ | 72300 M⁻¹ s⁻¹ | 2.19 nM | 0.00022 s⁻¹ | 101000 M⁻¹ s⁻¹
8 | A4-057 (VHH) VHH: VQLQESGGGLVQPGGSLRLSCAASGSIFSINTMGWYRQAPGKQREKVAAVTRGGSTNYADSVKGRFTISRDNAKNTVYLQMNSLRPEDTAVYYCHVDEVRQSSWTTSNLWGQGTQVTVSS | 53.3 nM | 0.00049 s⁻¹ | 9190 M⁻¹ s⁻¹ | 103 nM | 0.00031 s⁻¹ | 3020 M⁻¹ s⁻¹ | 64.4 nM | 0.00027 s⁻¹ | 4200 M⁻¹ s⁻¹ |  |  |  |  |  |  |  |  | 
9 | A4-045 (VHH) VHH: VQLQESGGGLVQPGGSLRLSCAASGSSFSINTMGWYRQAPGKQRELVAAVTRGGVTNYADSVKGRFTISRDNAKNTVYLQMNSLRPEDTAVYYCHVDEVRQSSWTTSNLWGQGTQVTVSS |  |  |  |  |  |  |  |  |  | 1.07 nM | 1e-05 s⁻¹ | 9390 M⁻¹ s⁻¹ | 41.3 nM | 0.00037 s⁻¹ | 8950 M⁻¹ s⁻¹ | 37.6 nM | 0.00027 s⁻¹ | 7190 M⁻¹ s⁻¹
10 | A4-058 (VHH) VHH: VQLQESGGGLVQPGGSLRLSCAASGSIFSINTMGWYRQAPAKQREIVATVTRDGSTNYAESVKGRFTISRDNAKNTVYLQMNSLRPEDTAVYYCHLDEVRQSTWTTSNLWGQGTQVTVSS | 6.11 nM | 0.0012 s⁻¹ | 196000 M⁻¹ s⁻¹ | 33.4 nM | 0.00173 s⁻¹ | 51800 M⁻¹ s⁻¹ | 24.5 nM | 0.00129 s⁻¹ | 52600 M⁻¹ s⁻¹ |  |  |  |  |  |  |  |  | 
11 | A4-042 (VHH) VHH: VQLQESGGGLVQPGGSLRLSCAASGRAFSINTMGWYRQAPGKQRELVATVTRDGSTNYADSVKGRFTISRDNAKNTVYLQMNSLRPEDTAVYYCHVDEVRQSSWTTSNLWGQGTQVTVSS |  |  |  |  |  |  |  |  |  | 125 nM | 0.00042 s⁻¹ | 3360 M⁻¹ s⁻¹ | 152 nM | 0.00118 s⁻¹ | 7760 M⁻¹ s⁻¹ | 308 nM | 0.00144 s⁻¹ | 4680 M⁻¹ s⁻¹
12 | A4-050 (VHH) VHH: VQLQESGGGLVQPGGSLRLSCAASGSSFVINTMGWYRQAPGKQRELVAAVTRGGSTNYADSVKGRFTISRDNAKNTVYLQMNSLRPEDTAVYYCHVDEVRQSSWTTSNLWGQGTQVTVSS |  |  |  |  |  |  |  |  |  | 2.44 nM | 0.00043 s⁻¹ | 176000 M⁻¹ s⁻¹ | 7 nM | 7e-05 s⁻¹ | 10000 M⁻¹ s⁻¹ | 2.52 nM | 0.00049 s⁻¹ | 194000 M⁻¹ s⁻¹
13 | A4-036 (VHH) VHH: VQLQESGGGLAQAGGSLRLSCAASGRGFSINTMGWYRQAPGKQRELVAAVTRGGTTNYADSVKGRFTISRDNAKNTVYLQMNSLRPEDTAVYYCHVDEVRQSSWTTSNLWGQGTQVTVSS |  |  |  |  |  |  |  |  |  | 336 nM | 0.00225 s⁻¹ | 6700 M⁻¹ s⁻¹ | 810 nM | 0.00621 s⁻¹ | 7670 M⁻¹ s⁻¹ | 1620 nM | 0.00944 s⁻¹ | 5810 M⁻¹ s⁻¹
14 | A4-052 (VHH) VHH: VQLQESGGGLVQPGGSLRLSCAASGSIFIINTMGWYRQAPGKQRELVAAVTRGGSTNYADSVKGRFTISRDNAKNTVYLQMNSLRPEDTAVYYCHVDEVRQSSWTTSNLWGQGTQVTVSS | 7.38 nM | 0.00077 s⁻¹ | 104000 M⁻¹ s⁻¹ | 47.6 nM | 0.00151 s⁻¹ |  | 388 nM | 0.00056 s⁻¹ | 1440 M⁻¹ s⁻¹ |  |  |  |  |  |  |  |  | 
15 | A4-041 (VHH) VHH: VQLQESGGGLVQPGGSLRLSCAASGRGFSINTMGWYRQAPGKQRELVATVTRGGSTNYANSVKGRFTISRDNAKNTVYLQMNSLRPEDTAVYYCHVDELRQSSWTTSNLWGQGTQVTVSS |  |  |  |  |  |  |  |  |  | 1980 nM | 0.00245 s⁻¹ | 1240 M⁻¹ s⁻¹ | 45.9 nM | 0.00616 s⁻¹ | 134000 M⁻¹ s⁻¹ | 8.15 nM | 0.00142 s⁻¹ | 174000 M⁻¹ s⁻¹
